Target: GST-tagged recombinant phosphorylated human ERK2 (human) (UniProt P28482)
UniProt P28482, sequence (P28482 whole entry): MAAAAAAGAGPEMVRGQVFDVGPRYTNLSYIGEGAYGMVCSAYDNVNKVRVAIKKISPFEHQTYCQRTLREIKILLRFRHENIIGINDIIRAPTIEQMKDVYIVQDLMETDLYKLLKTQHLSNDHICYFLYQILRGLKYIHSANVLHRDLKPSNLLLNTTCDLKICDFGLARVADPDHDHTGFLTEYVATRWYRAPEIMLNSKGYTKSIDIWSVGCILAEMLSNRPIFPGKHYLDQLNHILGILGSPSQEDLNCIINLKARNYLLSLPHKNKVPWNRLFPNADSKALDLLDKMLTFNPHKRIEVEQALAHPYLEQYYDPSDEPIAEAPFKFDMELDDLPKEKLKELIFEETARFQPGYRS

B1: GST-S147P, glutathione-S-transferase-tagged full-length human DUSP5 serine 147 proline mutant (enzyme)
chain: MKVTSLDGRQLRKMLRKEAAARCVVLDCRPYLAFAASNVRGSLNVNLNSVVLRRARGGAVSARYVLPDEAARARLLQEGGGGVAAVVVLDQGSRHWQKLREESAARVVLTSLLACLPAGPRVYFLKGGYETFYSEYPECCVDVKPIPQEKIESERALISQCGKPVVNVSYRPAYDQGGPVEILPFLYLGSAYHASKCEFLANLHITALLNVSRRTSEACATHLHYKWIPVEDSHTADISSHFQEAIDFIDCVREKGGKVLVHCEAGISRSPTICMAYLMKTKQFRLKEAFDYIKQRRSMVSPNFGFMGQLLQYESEILPSTPNPQPPSCQGEAAGSSLIGHLQTLSPDMQGAYCTFPASVLAPVPTHSTVSELSRSPVATATSC
dephosphorylation of pERK2 by western blot, dose curve 0.1-10 nM enzyme, 15 min; concentration at which the pERK band is completely absent (0.5 nM for GST-DUSP5): 5 nM

Source: PMC4299175
